The record followed here is patent publication US20090062199A1, “Nogo Receptor Polypeptides and Polypeptide Fragments and Uses Thereof” (Biogen Idec MA Inc., priority 2005, published 2009).

Test [1] addresses T1, TAJ (UniProt Q9NS68 30-170, limits assumed).
T1 construct: also called TROY
T1 sequence (looked up): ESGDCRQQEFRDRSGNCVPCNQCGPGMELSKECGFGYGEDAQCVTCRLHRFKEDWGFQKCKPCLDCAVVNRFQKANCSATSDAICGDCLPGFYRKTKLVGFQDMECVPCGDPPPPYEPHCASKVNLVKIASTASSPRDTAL
The experiment in a line: ELISA; reference is NgR1(310). (In general: In an ELISA, binding on a coated surface is turned into a signal by an enzyme label.)

The target in test [2] is T2, p75 (Homo sapiens, UniProt P08138).
T2 sequence (P08138 29-427): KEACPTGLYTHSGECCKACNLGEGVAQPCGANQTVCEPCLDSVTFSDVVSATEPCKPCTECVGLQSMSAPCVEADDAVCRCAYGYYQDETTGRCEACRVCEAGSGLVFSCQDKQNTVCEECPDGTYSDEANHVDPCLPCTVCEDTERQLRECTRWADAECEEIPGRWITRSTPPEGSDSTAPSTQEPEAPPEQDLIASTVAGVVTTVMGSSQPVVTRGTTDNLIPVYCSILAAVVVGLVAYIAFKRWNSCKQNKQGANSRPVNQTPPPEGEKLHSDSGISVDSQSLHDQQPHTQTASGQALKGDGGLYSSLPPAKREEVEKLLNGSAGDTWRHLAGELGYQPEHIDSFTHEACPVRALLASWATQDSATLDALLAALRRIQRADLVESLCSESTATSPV
The experiment in a line: ELISA binding of FL-NgR1 to p75. The conditions noted are these: compared with truncated versions containing the LRR region alone.

Test [3] addresses T3, TAJ (Homo sapiens, UniProt Q9NS68).
T3 sequence (Q9NS68 30-423): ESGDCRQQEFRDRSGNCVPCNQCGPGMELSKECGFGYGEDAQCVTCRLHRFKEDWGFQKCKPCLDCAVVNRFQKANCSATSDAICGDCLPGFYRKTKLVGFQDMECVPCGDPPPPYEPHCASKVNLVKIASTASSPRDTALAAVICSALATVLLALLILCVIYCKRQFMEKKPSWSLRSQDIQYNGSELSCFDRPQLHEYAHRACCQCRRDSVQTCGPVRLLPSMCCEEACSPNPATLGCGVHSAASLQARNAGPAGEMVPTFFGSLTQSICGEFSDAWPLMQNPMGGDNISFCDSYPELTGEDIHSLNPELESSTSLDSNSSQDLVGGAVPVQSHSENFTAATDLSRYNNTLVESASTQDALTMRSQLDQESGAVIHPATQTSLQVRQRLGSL
The experiment in a line: ELISA binding of FL-NgR1 to TAJ. The conditions noted are these: compared with truncated versions containing the LRR region alone. The text has this:
(§1) On size exclusion chromatography (SEC), the protein eluted as a single peak with a mass of about 80 kDa (FIG. 2B). […] See, for e.g., Shao, et al., (2005), Neuron 45, 353-359. A 10-fold higher affinity for Taj was seen using FL-NgR1 compared with the truncated versiox NgR1 (310) containing just the LRR region as described in Id.

Test [4] deals with T4, OMgp (Homo sapiens, UniProt P23515).
T4 sequence (P23515 25-417): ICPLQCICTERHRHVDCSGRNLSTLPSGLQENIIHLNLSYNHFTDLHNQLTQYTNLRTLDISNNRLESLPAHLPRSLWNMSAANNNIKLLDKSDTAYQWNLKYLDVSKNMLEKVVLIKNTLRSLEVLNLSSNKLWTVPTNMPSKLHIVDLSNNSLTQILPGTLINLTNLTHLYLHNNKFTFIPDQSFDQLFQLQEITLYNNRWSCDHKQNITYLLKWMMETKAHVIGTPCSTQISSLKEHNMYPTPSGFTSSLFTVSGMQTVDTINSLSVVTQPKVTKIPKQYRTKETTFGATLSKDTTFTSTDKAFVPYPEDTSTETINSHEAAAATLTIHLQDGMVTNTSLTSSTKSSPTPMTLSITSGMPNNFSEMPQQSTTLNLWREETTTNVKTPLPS
As to the kind of experiment: ELISA binding of FL-NgR1 to OMgp. The conditions noted are these: compared with truncated versions containing the LRR region alone.

In test [5] the test system is AP-OMgp. The experiment in a line: Competition ELISA, anti-NgR1 antibody blocking binding of AP-OMgp to FL-NgR1. To be noted: anti-NgR1 antibody used to block binding; FIG. 2C.
From the text: as §1

In test [6] the target is T5, LINGO-1 (Homo sapiens, UniProt Q96FE5).
T5 sequence (Q96FE5 42-620): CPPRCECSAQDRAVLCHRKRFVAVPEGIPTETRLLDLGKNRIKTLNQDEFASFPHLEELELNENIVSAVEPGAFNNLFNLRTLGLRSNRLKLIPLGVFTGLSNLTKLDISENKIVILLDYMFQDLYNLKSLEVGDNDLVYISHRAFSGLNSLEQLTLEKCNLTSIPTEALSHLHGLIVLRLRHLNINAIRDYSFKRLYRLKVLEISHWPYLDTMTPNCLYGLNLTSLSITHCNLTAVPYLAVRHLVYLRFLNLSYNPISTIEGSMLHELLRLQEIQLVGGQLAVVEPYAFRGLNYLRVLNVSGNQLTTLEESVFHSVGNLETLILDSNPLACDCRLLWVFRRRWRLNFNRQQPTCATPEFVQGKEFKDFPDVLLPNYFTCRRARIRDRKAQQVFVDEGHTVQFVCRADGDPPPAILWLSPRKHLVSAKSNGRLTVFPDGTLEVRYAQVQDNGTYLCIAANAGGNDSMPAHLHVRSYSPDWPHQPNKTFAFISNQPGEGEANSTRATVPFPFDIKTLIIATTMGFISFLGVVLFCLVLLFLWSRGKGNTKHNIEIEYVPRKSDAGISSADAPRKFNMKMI
The experiment in a line: ELISA binding of FL-NgR1 to LINGO-1. To be noted: compared with truncated versions containing the LRR region alone.
From the text: as §1

In test [7] the test system is AP-Lingo-1. The experiment in a line: Competition ELISA, anti-NgR1 antibody blocking binding of AP-Lingo-1 to FL-NgR1. The conditions noted are these: anti-NgR1 antibody used to block binding; FIG. 2C.
From the text: as §1

Test [8] has as its target T6, Nogo-66 (Homo sapiens, UniProt Q9NQC3).
T6 construct: Nogo-66 is a 66 amino acid peptide from NogoA
T6 sequence (Q9NQC3 1055-1120 limits assumed): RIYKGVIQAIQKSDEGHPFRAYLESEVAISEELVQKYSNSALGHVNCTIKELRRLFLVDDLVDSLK
As to the kind of experiment: ELISA binding of FL-NgR1 to Nogo-66. The conditions noted are these: compared with truncated versions containing the LRR region alone.

B1: Human NgR1, excluding the GPI domain (FL-NgR1, residues 27-438) with a flag tag at its N-terminus (receptor)
chain: CPGACVCYNEPKVTTSCPQQGLQAVPVGIPAASQRIFLHGNRISHVPAASFRACRNLTILWLHSNVLARIDAAAFTGLALLEQLDLSDNAQLRSVDPATFHGLGRLHTLHLDRCGLQELGPGLFRGLAALQYLYLQDNALQALPDDTFRDLGNLTHLFLHGNRISSVPERAFRGLHSLDRLLLHQNRVAHVHPHAFRDLGRLMTLYLFANNLSALPTEALAPLRALQYLRLNDNPWVCDCRARPLWAWLQKFRGSSSEVPCSLPQRLAGRDLKRLAANDLQGCAVATGPYHPIWTGRATDEEPLGLPKCCQPDAADKASVLEPGRPASAGNALKGRVPPGDSPPGNGSGPRHINDSPFGTLPGSAEPPLTAVRPEGSEPPGFPTSGPRRRPGCSRKNRTRSHCRLGQAGSGG
notes: Soluble protein expressed in CHO cells; also called human FL-NgR1; NgRI; not shown: N-terminal flag tag
Consider B1, for which the “fold higher affinity compared with NgR1 (310)” value in test [1] was 10 fold.

B2: FL-NgR1: Human NgR1 excluding the GPI domain, residues 27-438 (SEQ ID NO:22), N-terminal flag tag, expressed in CHO cells (protein)
chain: CPGACVCYNEPKVTTSCPQQGLQAVPVGIPAASQRIFLHGNRISHVPAASFRACRNLTILWLHSNVLARIDAAAFTGLALLEQLDLSDNAQLRSVDPATFHGLGRLHTLHLDRCGLQELGPGLFRGLAALQYLYLQDNALQALPDDTFRDLGNLTHLFLHGNRISSVPERAFRGLHSLDRLLLHQNRVAHVHPHAFRDLGRLMTLYLFANNLSALPTEALAPLRALQYLRLNDNPWVCDCRARPLWAWLQKFRGSSSEVPCSLPQRLAGRDLKRLAANDLQGCAVATGPYHPIWTGRATDEEPLGLPKCCQPDAADKASVLEPGRPASAGNALKGRVPPGDSPPGNGSGPRHINDSPFGTLPGSAEPPLTAVRPEGSEPPGFPTSGPRRRPGCSRKNRTRSHCRLGQAGSGG
modifications: N-terminal FLAG tag; Human NgR-1
As to B2, in test [2], the “binding in an ELISA assay to p75” value is on record as “as well as or better than truncated versions containing the LRR region alone”. In test [3], the “binding in an ELISA assay to TAJ” value is listed as “as well as or better than truncated versions containing the LRR region alone”. Besides, in test [4], the “binding in an ELISA assay to OMgp” value is “as well as or better than truncated versions containing the LRR region alone”. Moreover, the “binding of AP-OMgp in competition ELISA” value in test [5] was “verified the activities of FL-NgR1”. The “binding in an ELISA assay to LINGO-1” value in test [6] is recorded as “as well as or better than truncated versions containing the LRR region alone”. In test [7], the “binding of AP-Lingo-1 in competition ELISA” value was “verified the activities of FL-NgR1”. The “binding in an ELISA assay to Nogo-66” value in test [8] was “as well as or better than truncated versions containing the LRR region alone”.
